Laboratory results published in article PMC4192540, “Targeted In Vivo Inhibition of Specific Protein–Protein Interactions Using Recombinant Antibodies” (PLoS ONE, 2014).
Values belong to the binder of their own block, whether it stands above or below them.

Columns and labels:
Settings in all cases: partners not purified
[1] = target: T1, ARABIDOPSIS … PHOSPHOTRANSFER PROTEIN 2, Gal4 activation domain fusion (A. thaliana, UniProt Q9ZNV8); test: two-hybrid; recombinant antibodies as Gal4 DNA BD fusions (pGBKT7), AHP proteins as Gal4 AD fusions (pGADT7-DEST); S. cerevisiae PJ69-4A; growth after 3 days at 30°C on media lacking Leu, Trp and His or Ade; 1-5 mM 3-Amino-1,2,4-triazole for stringent selection
T1 construct: ARABIDOPSIS … PHOSPHOTRANSFER PROTEIN 2 (AHP2), A. thaliana; also called AHP2; source: yeast two-hybrid fusion (pGADT7-DEST, S. cerevisiae PJ69-4A)

[2] = target: T2, ARABIDOPSIS … PHOSPHOTRANSFER PROTEIN 3, Gal4 activation domain fusion (A. thaliana, UniProt Q9SAZ5); test: as above
T2 construct: ARABIDOPSIS … PHOSPHOTRANSFER PROTEIN 3 (AHP3), A. thaliana; also called AHP3; source: yeast two-hybrid fusion (pGADT7-DEST, S. cerevisiae PJ69-4A)

[3] = target: T3, ARABIDOPSIS … PHOSPHOTRANSFER PROTEIN 1, Gal4 activation domain fusion (Arabidopsis thaliana (Mouse-ear cress)., UniProt Q9ZNV9); test: as above
T3 construct: ARABIDOPSIS … PHOSPHOTRANSFER PROTEIN 1 (AHP1), A. thaliana; also called AHP1; source: yeast two-hybrid fusion (pGADT7-DEST, S. cerevisiae PJ69-4A)

[4] = target: T4, ARABIDOPSIS … PHOSPHOTRANSFER PROTEIN 5, Gal4 activation domain fusion (A. thaliana, UniProt Q8L9T7); test: as above
T4 construct: ARABIDOPSIS … PHOSPHOTRANSFER PROTEIN 5 (AHP5), A. thaliana; also called AHP5; source: yeast two-hybrid fusion (pGADT7-DEST, S. cerevisiae PJ69-4A)

[5] = target: T5, ARABIDOPSIS … PHOSPHOTRANSFER PROTEIN 6, Gal4 activation domain fusion (Arabidopsis thaliana (Mouse-ear cress)., UniProt Q9SSC9); test: as above
T5 construct: ARABIDOPSIS … PHOSPHOTRANSFER PROTEIN 6 (AHP6), A. thaliana; also called AHP6; source: yeast two-hybrid fusion (pGADT7-DEST, S. cerevisiae PJ69-4A)

[6] = target: T6, ARABIDOPSIS … PHOSPHOTRANSFER PROTEIN 4, Gal4 activation domain fusion (Arabidopsis thaliana (Mouse-ear cress)., UniProt Q9LU15); test: as above
T6 construct: ARABIDOPSIS … PHOSPHOTRANSFER PROTEIN 4 (AHP4), A. thaliana; also called AHP4; source: yeast two-hybrid fusion (pGADT7-DEST, S. cerevisiae PJ69-4A)

[7] = target: T2, ARABIDOPSIS … PHOSPHOTRANSFER PROTEIN …; test: two-hybrid; yeast three-hybrid: receiver domain as Gal4 BD fusion, AHP proteins as Gal4 AD fusions, scFv hB7A expressed ectopically from pY3HS or empty pY3HS; S. cerevisiae PJ69-4A; media lacking Leu, Trp, Ura and His or Ade, or with 1 mM 3-Amino-1,2,4-triazole
[8] = target: T7, recombinant ARABIDOPSIS … PHOSPHOTRANSFER PROTEIN 3 with 6x-His-tag (Arabidopsis thaliana (Mouse-ear cress)., UniProt Q9SAZ5); test: far-Western, overlay or dot blot; total protein extracts of bacterially expressed AHP proteins separated by SDS-PAGE and blotted on PVDF; periplasmic extract with the scFv diluted 1:2 in blocking buffer (5% skimmed milk, TBS, 0.1% Tween-20), 1 h; detected by anti-c-myc-tag antibody
T7 construct: ARABIDOPSIS … PHOSPHOTRANSFER PROTEIN 3 (AHP3), A. thaliana; also called AHP3; AHP3 antigen; source: purified

cYFP:CKI1 RD = target: T8, cYFP:CKI1 RD (Arabidopsis thaliana, UniProt O22267); test: split reporter (BiFC, NanoBiT); bimolecular fluorescent complementation with split YFP in A. thaliana Col-0 mesophyll protoplasts, 16 h at room temperature, confocal microscopy
T8 construct: CYTOKININ INDEPENDENT … KINASE 1 (CKI1), A. thaliana, receiver domain; source: A. thaliana mesophyll protoplasts, co-transformed; not shown: C-terminal fragment of YFP (cYFP), N-terminal, kept

AHP3:cYFP = target: T9, AHP3:cYFP (Arabidopsis thaliana (Mouse-ear cress)., UniProt Q9SAZ5); test: as above
T9 construct: ARABIDOPSIS … PHOSPHOTRANSFER PROTEIN 3 (AHP3), A. thaliana; source: A. thaliana Col-0 mesophyll protoplasts, transfected; not shown: C-terminal fragment of YFP (cYFP), C-terminal, kept
T9 sequence (Q9SAZ5 whole entry, the tested form may be a part): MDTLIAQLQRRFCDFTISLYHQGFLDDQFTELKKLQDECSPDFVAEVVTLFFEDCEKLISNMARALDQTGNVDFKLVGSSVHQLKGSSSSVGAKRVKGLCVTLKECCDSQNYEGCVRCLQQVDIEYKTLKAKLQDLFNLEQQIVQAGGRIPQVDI

T2 sequence (Q9SAZ5 whole entry, the tested form may be a part): as above
T6 sequence (Q9LU15 whole entry, the tested form may be a part): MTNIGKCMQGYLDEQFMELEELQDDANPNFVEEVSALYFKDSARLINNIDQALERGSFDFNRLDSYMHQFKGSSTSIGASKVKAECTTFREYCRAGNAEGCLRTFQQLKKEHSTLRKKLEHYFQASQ
T4 sequence (Q8L9T7 whole entry, the tested form may be a part): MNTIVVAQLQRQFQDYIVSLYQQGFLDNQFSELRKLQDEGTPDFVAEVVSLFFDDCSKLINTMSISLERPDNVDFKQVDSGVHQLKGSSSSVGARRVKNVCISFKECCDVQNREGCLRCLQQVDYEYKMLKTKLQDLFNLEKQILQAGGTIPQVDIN
T5 sequence (Q9SSC9 whole entry, the tested form may be a part): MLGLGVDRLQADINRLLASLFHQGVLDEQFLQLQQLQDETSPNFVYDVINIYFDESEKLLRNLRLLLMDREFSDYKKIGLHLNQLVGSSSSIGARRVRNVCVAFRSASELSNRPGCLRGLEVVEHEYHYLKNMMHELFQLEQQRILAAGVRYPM
T8 sequence (O22267 whole entry, looked up, the tested form may be a part): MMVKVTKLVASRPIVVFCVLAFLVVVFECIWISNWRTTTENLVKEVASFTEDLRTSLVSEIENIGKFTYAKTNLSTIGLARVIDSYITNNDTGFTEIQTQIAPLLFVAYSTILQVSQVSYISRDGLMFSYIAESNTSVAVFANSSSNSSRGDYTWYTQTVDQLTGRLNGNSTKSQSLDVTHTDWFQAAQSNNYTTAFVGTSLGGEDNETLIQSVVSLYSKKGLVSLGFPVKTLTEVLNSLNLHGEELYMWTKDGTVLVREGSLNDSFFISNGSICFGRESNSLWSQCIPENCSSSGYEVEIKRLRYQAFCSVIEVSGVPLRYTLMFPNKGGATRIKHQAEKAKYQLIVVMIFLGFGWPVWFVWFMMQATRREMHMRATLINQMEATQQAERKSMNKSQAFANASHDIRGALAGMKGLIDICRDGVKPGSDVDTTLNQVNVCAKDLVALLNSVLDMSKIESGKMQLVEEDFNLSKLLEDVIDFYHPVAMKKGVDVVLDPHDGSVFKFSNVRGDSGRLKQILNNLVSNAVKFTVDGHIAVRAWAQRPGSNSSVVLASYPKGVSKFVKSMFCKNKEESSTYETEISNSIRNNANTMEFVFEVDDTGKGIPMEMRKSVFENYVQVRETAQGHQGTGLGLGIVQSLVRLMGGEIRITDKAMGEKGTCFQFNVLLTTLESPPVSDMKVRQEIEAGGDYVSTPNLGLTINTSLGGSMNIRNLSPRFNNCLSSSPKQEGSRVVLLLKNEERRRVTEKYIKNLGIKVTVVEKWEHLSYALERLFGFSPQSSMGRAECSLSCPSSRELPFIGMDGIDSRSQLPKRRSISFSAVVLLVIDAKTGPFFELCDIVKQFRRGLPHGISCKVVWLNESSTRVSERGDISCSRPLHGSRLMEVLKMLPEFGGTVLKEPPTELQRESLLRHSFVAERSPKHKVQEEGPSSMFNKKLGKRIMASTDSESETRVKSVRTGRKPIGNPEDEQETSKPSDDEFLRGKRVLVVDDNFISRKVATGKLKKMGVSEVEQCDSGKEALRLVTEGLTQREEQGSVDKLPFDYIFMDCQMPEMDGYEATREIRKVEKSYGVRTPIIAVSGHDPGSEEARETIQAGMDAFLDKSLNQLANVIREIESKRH
T1 sequence (Q9ZNV8 whole entry, the tested form may be a part): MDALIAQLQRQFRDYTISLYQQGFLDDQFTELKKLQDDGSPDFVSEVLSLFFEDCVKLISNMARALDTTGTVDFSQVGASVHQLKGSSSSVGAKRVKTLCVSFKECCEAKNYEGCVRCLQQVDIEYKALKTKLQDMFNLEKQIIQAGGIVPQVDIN
T3 sequence (Q9ZNV9 whole entry, the tested form may be a part): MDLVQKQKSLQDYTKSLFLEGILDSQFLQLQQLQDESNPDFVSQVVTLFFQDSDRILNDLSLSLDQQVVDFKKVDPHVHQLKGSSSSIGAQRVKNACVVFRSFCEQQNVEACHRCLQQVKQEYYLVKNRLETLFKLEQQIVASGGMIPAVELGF
T7 sequence (Q9SAZ5 whole entry): as the sequence (Q9SAZ5 whole entry, the tested form may be a part) above

binding result [1]: no binding | binding result [2]: binds | binding result [3]: no binding | binding result [4]: no binding | binding result [5]: no binding | binding result [6]: no binding
B1: scFv hB7A, Gal4 DNA binding domain fusion (scFv, V domains shown)
VH: EVQLLESGGGLVQPGGSLRLSCAASGFTFSFYRMSWVRQAPGKGLEWVSAISGSGGSTYYADSVKGRFTISRDNSKNTLYLQMNSLRAEDTAVYYCAKRVLTFDYWGQGTLVTVSS
VL: DIQMTQSPSSLSASVGDRVTITCRASQSIRKRLNWYQQKPGKAPKLLIYAASSLQSGVPSRFSGSGSGTDFTLTISSLQPEDFATYYCQQSYSTPPTFGQGTKVEIK
notes: selected from Human Single Fold scFv Library A+B; cloned between NcoI and NotI of pGBKT7; source: yeast two-hybrid fusion (pGBKT7, S. cerevisiae PJ69-4A)

binding result [7]: binds
B2: scFv hB7A, ectopic expression from pY3HS (scFv, V domains shown)
VH: EVQLLESGGGLVQPGGSLRLSCAASGFTFSFYRMSWVRQAPGKGLEWVSAISGSGGSTYYADSVKGRFTISRDNSKNTLYLQMNSLRAEDTAVYYCAKRVLTFDYWGQGTLVTVSS
VL: DIQMTQSPSSLSASVGDRVTITCRASQSIRKRLNWYQQKPGKAPKLLIYAASSLQSGVPSRFSGSGSGTDFTLTISSLQPEDFATYYCQQSYSTPPTFGQGTKVEIK
notes: source: S. cerevisiae PJ69-4A, ectopic expression from pY3HS

binding result [8]: binds
B3: scFv hB7A with C-terminal c-myc-tag (scFv, V domains shown)
VH: EVQLLESGGGLVQPGGSLRLSCAASGFTFSFYRMSWVRQAPGKGLEWVSAISGSGGSTYYADSVKGRFTISRDNSKNTLYLQMNSLRAEDTAVYYCAKRVLTFDYWGQGTLVTVSS
VL: DIQMTQSPSSLSASVGDRVTITCRASQSIRKRLNWYQQKPGKAPKLLIYAASSLQSGVPSRFSGSGSGTDFTLTISSLQPEDFATYYCQQSYSTPPTFGQGTKVEIK
notes: source: E. coli BL21(DE3), periplasmic extract; purified (ammonium sulfate, Protein L column); not shown: c-myc-tag, C-terminal, kept

binding result (cYFP:CKI1 RD): no binding | binding result (AHP3:cYFP): binds
B4: nYFP:scFv-hB7A (scFv, V domains shown)
VH: EVQLLESGGGLVQPGGSLRLSCAASGFTFSFYRMSWVRQAPGKGLEWVSAISGSGGSTYYADSVKGRFTISRDNSKNTLYLQMNSLRAEDTAVYYCAKRVLTFDYWGQGTLVTVSS
VL: DIQMTQSPSSLSASVGDRVTITCRASQSIRKRLNWYQQKPGKAPKLLIYAASSLQSGVPSRFSGSGSGTDFTLTISSLQPEDFATYYCQQSYSTPPTFGQGTKVEIK
notes: sub-cloned from pY3HS with BglII and EcoRI, so the StrepTag II of the cassette may be carried along (surmise); source: A. thaliana Col-0 mesophyll protoplasts, transfected; not shown: N-terminal fragment of YFP (nYFP), N-terminal, kept

binding result (AHP3:cYFP): binds
B5: scFv-hB7A:nYFP (scFv, V domains shown)
VH: EVQLLESGGGLVQPGGSLRLSCAASGFTFSFYRMSWVRQAPGKGLEWVSAISGSGGSTYYADSVKGRFTISRDNSKNTLYLQMNSLRAEDTAVYYCAKRVLTFDYWGQGTLVTVSS
VL: DIQMTQSPSSLSASVGDRVTITCRASQSIRKRLNWYQQKPGKAPKLLIYAASSLQSGVPSRFSGSGSGTDFTLTISSLQPEDFATYYCQQSYSTPPTFGQGTKVEIK
notes: sub-cloned from pY3HS with BglII and EcoRI, so the StrepTag II of the cassette may be carried along (surmise); source: A. thaliana Col-0 mesophyll protoplasts, transfected; not shown: N-terminal fragment of YFP (nYFP), C-terminal, kept
